This passage reports protein stability index results from the supplement of paper PMC10567573.

± gives the standard deviation.

The series in a line: protein stability index of a GFP-peptide fusion (GPS, HEK-293T) (PSI 1-6); higher = more stable. To be noted: c terminus: a fixed tail appended.
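Further: 24-mer peptide tiles fused after GFP, lentivirally expressed, FACS-sorted into six equal bins by GFP/DsRed ratio, decoded by Illumina sequencing, PSI is the read-weighted mean bin number.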

Turning to MSGKSPVESSLNVKTKKNAPSATI [FBXO34], the protein stability index was 4.5 ± 0.22 (treatment: DMSO) and 4.6 ± 0.12 (treatment: MLN4924 1 uM, 8 h).

Consider MTGLALKHMFERSFTQGEGARPLS [MATN2], for which the protein stability index by setting is: (treatment: DMSO) 2.69 ± 0.28; (treatment: MLN4924 1 uM, 8 h) 2.93 ± 0.42.

Regarding MTMQFISHRFPEDHDPTIEDAYKI [RIT1], the protein stability index is, setting by setting: (treatment: DMSO) 3.24 ± 0.15; (treatment: MLN4924 1 uM, 8 h) 3.36 ± 0.22.

In the case of MVHVARLLLLLLTFFLRTDAETPP [PTPRD], the protein stability index reads like this: (treatment: DMSO) 2.91 ± 0.44; (treatment: MLN4924 1 uM, 8 h) 2.95 ± 0.44.

On to MVKPLLHMLLNTTLNIKETDSKEL [ZBED1], for which the protein stability index (treatment: DMSO) was determined as 2.13 ± 0.58 and the protein stability index (treatment: MLN4924 1 uM, 8 h) is 2.24 ± 0.38.

As for MVQVACGASHVLALSTERELFAWG [NEK8], the protein stability index runs as follows: (treatment: DMSO) 2.59 ± 1.1; (treatment: MLN4924 1 uM, 8 h) 2.32 ± 0.84.

NAPNSLGVSALCAICGDRATGKHY [HNF4A]: the protein stability index by setting is: (treatment: DMSO) 2.84 ± 0.12; (treatment: MLN4924 1 uM, 8 h) 3.2 ± 0.15.

On to NAYHIERLMSFRPICSANHKESKM [CRYBA1], for which the protein stability index reads like this: (treatment: DMSO) 3.12 ± 0.16; (treatment: MLN4924 1 uM, 8 h) 3.29 ± 0.12.

In the case of NCCLTLCNFSIPEELEFQYRRVNE [ZER1], the protein stability index by setting is: (treatment: DMSO) 2.55 ± 0.33; (treatment: MLN4924 1 uM, 8 h) 2.55 ± 0.14.

On to NCGLEEKIANLGSCNDSKLEFRSF [S100A14], for which the protein stability index reads like this: (treatment: DMSO) 2.25 ± 0.68; (treatment: MLN4924 1 uM, 8 h) 2.82 ± 1.2.

On to NDPEKNFLTTAIRPHGIFGPRDPQ [NSDHL], for which the protein stability index by setting is: (treatment: DMSO) 4.24 ± 0.3; (treatment: MLN4924 1 uM, 8 h) 4.24 ± 0.29.

With NDVRQAARSAASYMLFDPKDSVMQ [P3H4], the protein stability index reads like this: (treatment: DMSO) 3.97 ± 0.12; (treatment: MLN4924 1 uM, 8 h) 4.08 ± 0.39.

Regarding NEARHNFGIVEIDGMLYILGGEDG [GAN], the protein stability index by setting is: (treatment: DMSO) 2.63 ± 0.37; (treatment: MLN4924 1 uM, 8 h) 2.72 ± 0.4.

Consider NEQVLTTEHEKKQKLETDAMFRLE [YJU2B], for which the protein stability index was determined as 5.43 ± 0.15 (treatment: DMSO) and 5.43 ± 0.19 (treatment: MLN4924 1 uM, 8 h).

Take NFSIVPYEKKFDTFIPLEPLPQIP [SPATS1]: the protein stability index is 3.04 ± 0.33 (treatment: DMSO) and 2.97 ± 0.34 (treatment: MLN4924 1 uM, 8 h).

Consider NFSKKIQQIHVVSQFKILVSLLEN [VPS39], for which the protein stability index runs as follows: (treatment: DMSO) 2.64 ± 0.39; (treatment: MLN4924 1 uM, 8 h) 2.81 ± 0.66.

With NIEDYFSHHLAVYNSPQFKKTMST [FBXO39], the protein stability index runs as follows: (treatment: DMSO) 2.75 ± 0.28; (treatment: MLN4924 1 uM, 8 h) 2.71 ± 0.12.

As to NIMNKEAFMNQEITKAFHVRKANR [RHOBTB1], the protein stability index reads like this: (treatment: DMSO) 3.35 ± 0.18; (treatment: MLN4924 1 uM, 8 h) 3.45 ± 0.34.

As to NITINIVDDHTPWVKGSVPPPLDQ [CLPTM1], the protein stability index turned out to be 2.83 ± 0.28 (treatment: DMSO) and 2.77 ± 0.34 (treatment: MLN4924 1 uM, 8 h).

Take NKVLVCPMKSAPVMLTLSDSKHVV [RBBP5]: the protein stability index by setting is: (treatment: DMSO) 2.57 ± 0.25; (treatment: MLN4924 1 uM, 8 h) 2.75 ± 0.19.

As for NKYDNTCLMIAAYKGHTDVVRYLL [FEM1B], the protein stability index by setting is: (treatment: DMSO) 2.44 ± 0.66; (treatment: MLN4924 1 uM, 8 h) 2.31 ± 0.29.

Regarding NLETNEWRYVSSLPQPLAAHAGAV [KLHL14], the protein stability index reads like this: (treatment: DMSO) 2.64 ± 0.36; (treatment: MLN4924 1 uM, 8 h) 2.87 ± 0.37.

Regarding NPELIKPKKLLNPVKASRSHQELH [FAM107A], the protein stability index reads like this: (treatment: DMSO) 4.21 ± 0.16; (treatment: MLN4924 1 uM, 8 h) 4.24 ± 0.26.

In the case of NRDLRKASVTIQARAEQEEEFISN [CCDC6], the protein stability index amounted to 4.96 ± 0.26 (treatment: DMSO) and 5.05 ± 0.27 (treatment: MLN4924 1 uM, 8 h).

Turning to NRKSILSRHLNSQVKKTTTRWCHI [PHTF1], the protein stability index was 2.57 ± 0.55 (treatment: DMSO) and 2.57 ± 0.39 (treatment: MLN4924 1 uM, 8 h).

As to NRLSELEVANKDLTERKYKGDSTI [SASS6], the protein stability index amounted to 4.71 ± 0.38 (treatment: DMSO) and 4.96 ± 0.38 (treatment: MLN4924 1 uM, 8 h).

For the sequence NRLSIGLQSLDDTELRLLGRTHSA [RSAD1], the protein stability index was 3.77 ± 0.22 (treatment: DMSO) and 3.79 ± 0.28 (treatment: MLN4924 1 uM, 8 h).

Under “treatment: MLN4924 1 uM, 8 h”, NSLEGGTDATAFWWGEWTKWTACS [ADAMTSL2] gave a protein stability index of 3.25 ± 0.35.

On to NSLRGVILDIHFLSQADFLVCTFS [FUT8], for which the protein stability index is, setting by setting: (treatment: DMSO) 2.72 ± 0.71; (treatment: MLN4924 1 uM, 8 h) 2.79 ± 0.49.

Consider NSNQATDIMETSGWKSMIQSHPHL [SPOPL], for which the protein stability index runs as follows: (treatment: DMSO) 3.34 ± 0.22; (treatment: MLN4924 1 uM, 8 h) 3.48 ± 0.21.

As for NTLQTYIRCRHPPPGSHLLYAKMI [VDR], the protein stability index is 2.21 ± 0.15 (treatment: DMSO) and 2.33 ± 0.25 (treatment: MLN4924 1 uM, 8 h).

In the case of NTTCQTENRLSVFFSVIFMTVGIL [PTGFR], the protein stability index turned out to be 2.39 ± 0.53 (treatment: DMSO) and 2.64 ± 0.46 (treatment: MLN4924 1 uM, 8 h).

Sequence NYCLLFLIYTVMLAFRSGSDNLLV [SLC35F2] came in with a protein stability index (treatment: DMSO) of 3.04 ± 0.44 and a protein stability index (treatment: MLN4924 1 uM, 8 h) of 3.29 ± 0.79.

As to NYSIPSNVTNLEGGPGRQTTSPNV [ESR2], the protein stability index by setting is: (treatment: DMSO) 4.66 ± 0.36; (treatment: MLN4924 1 uM, 8 h) 4.68 ± 0.27.

With PAAMGPPGAPPGRDLASVPPELTA [DVL3], the protein stability index by setting is: (treatment: DMSO) 4.88 ± 0.29; (treatment: MLN4924 1 uM, 8 h) 4.89 ± 0.075.

As for PAGVGVVVEATHMCMVMRGVQKMN [GCH1], the protein stability index stood at 2.41 ± 0.23 (treatment: DMSO) and 2.32 ± 0.34 (treatment: MLN4924 1 uM, 8 h).

Take PAMRNSPTFKSFEERVETTVTSLK [TPD52L1]: the protein stability index runs as follows: (treatment: DMSO) 4.61 ± 0.13; (treatment: MLN4924 1 uM, 8 h) 4.42 ± 0.2.

For PAPALCCAPYDSRLLGSARPELGA [IRX6], the protein stability index stood at 3.08 ± 0.19 (treatment: DMSO) and 3.1 ± 0.25 (treatment: MLN4924 1 uM, 8 h).

For the sequence PASSRNRSPSGSLRSARGSRGGTR [RBMY1A1], the protein stability index by setting is: (treatment: DMSO) 5.14 ± 0.37; (treatment: MLN4924 1 uM, 8 h) 5.25 ± 0.24.

For the sequence PAWYVAACRANVKSGAIMSALSDT [PPFIA4], the protein stability index reads like this: (treatment: DMSO) 2.58 ± 0.26; (treatment: MLN4924 1 uM, 8 h) 2.25 ± 0.39.

With PAYGMSPSLSTITSTSSSITSSIP [DVL3], the protein stability index reads like this: (treatment: DMSO) 3.82 ± 0.26; (treatment: MLN4924 1 uM, 8 h) 3.65 ± 0.27.

With PDDVDYATNPHVKPPYSYATLICM [FOXJ1], the protein stability index by setting is: (treatment: DMSO) 2.22 ± 0.28; (treatment: MLN4924 1 uM, 8 h) 2.2 ± 0.28.

Take PDTQLLKFQLNKYTGEIKISENLD [PCDHGA10]: the protein stability index is 3.43 ± 0.44 (treatment: DMSO) and 3.66 ± 0.17 (treatment: MLN4924 1 uM, 8 h).

As to PEGTENPLGVDESLFSYGLRESIA [SLA], the protein stability index was 4.04 ± 1.1 (treatment: DMSO) and 4.19 ± 0.1 (treatment: MLN4924 1 uM, 8 h).

PEISRIIVDPTTGKRYCRGKVLGK [PLK2] displayed a protein stability index (treatment: DMSO) of 3.9 ± 0.22 and a protein stability index (treatment: MLN4924 1 uM, 8 h) of 4.04 ± 0.2.

PEKQKRKPGLRRSPIKKVRKSLAL [MYBL2] displayed a protein stability index (treatment: DMSO) of 3.97 ± 0.2 and a protein stability index (treatment: MLN4924 1 uM, 8 h) of 3.83 ± 0.075.

For the sequence PFREILCKKLHIPLKAQNDLDISR [P2RY14], the protein stability index runs as follows: (treatment: DMSO) 2.39 ± 0.12; (treatment: MLN4924 1 uM, 8 h) 2.46 ± 0.29.

Turning to PGFDSSVYSDLCEAAEAVRPEERK [ADAMTSL2], the protein stability index is, setting by setting: (treatment: DMSO) 5.42 ± 0.19; (treatment: MLN4924 1 uM, 8 h) 5.83 ± 0.18.

For PGKYFSAAEYHAQRLKAVIVIQTY [IQUB], the protein stability index (treatment: DMSO) was determined as 2.81 ± 0.32 and the protein stability index (treatment: MLN4924 1 uM, 8 h) is 2.5 ± 0.66.

On to PGPGDDLCSDLEEAPEAELSQAPA [HES6], for which the protein stability index reads like this: (treatment: DMSO) 5.44 ± 0.23; (treatment: MLN4924 1 uM, 8 h) 5.43 ± 0.35.

Consider PGPPGPTGVPGSPGHIGPPGPTGP [EMID1], for which the protein stability index is 5.29 ± 0.11 (treatment: DMSO) and 5.13 ± 0.44 (treatment: MLN4924 1 uM, 8 h).

Turning to PGPTAPSPTSRPPWAVDPAFAERY [PDLIM7], the protein stability index runs as follows: (treatment: DMSO) 2.2 ± 0.43; (treatment: MLN4924 1 uM, 8 h) 3.02 ± 0.36.

As to PGRSRMISQEEFARQLQLSDPQTV [LPCAT4], the protein stability index turned out to be 4.44 ± 0.22 (treatment: DMSO) and 4.38 ± 0.12 (treatment: MLN4924 1 uM, 8 h).
